Data taken from patent US20240343826A1, “Compositions and Methods for Targeting Cancer Stem Cells” (Seagen Inc., priority 2015, published 2024).

B1: S3F: anti-STn IgG2a antibody combining 3F1 variable domains with IgG2a constant domains; heavy chain SEQ ID NO: 5, light chain SEQ ID NO: 6 (antibody)
heavy: QVQLQQSDAELVKPGASVKISCKASGYTFTDHAIHWVKQKPEQGLDWIGYISPGNGDIKYNEKFKDKVTLTADKSSSTACMHLNSLTSEDSAVYFCKRSLLALDYWGQGTTLTVSSAKTTAPSVYPLAPVCGDTTGSSVTLGCLVKGYFPEPVTLTWNSGSLSSGVHTFPAVLQSDLYTLSSSVTVTSSTWPSQSITCNVAHPASSTKVDKKIEPRGPTIKPCPPCKCPAPNLLGGPSVFIFPPKIKDVLMISLSPIVTCVVVDVSEDDPDVQISWFVNNVEVHTAQTQTHREDYNSTLRVVSALPIQHQDWMSGKEFKCKVNNKDLPAPIERTISKPKGSVRAPQVYVLPPPEEEMTKKQVTLTCMVTDFMPEDIYVEWTNNGKTELNYKNTEPVLDSDGSYFMYSKLRVEKKNWVERNSYSCSVVHEGLHNHHTTKSFSRTPGK
light: DIVMTQSHKFMSTSVGDRVSITCKASQDVGTNIAWYQQKPGRSPKVLIYSASTRHTGVPDRFTGSGSGTDFTLTISNVQSEDLTDYFCQQYSSFPLTFGVGTKLELKRADAAPTVSIFPPSSEQLTSGGASVVCFLNNFYPKDINVKWKIDGSERQNGVLNSWTDQDSKDSTYSMSSTLTLTKDEYERHNSYTCEATHKTSTSPIVKSFNRNEC

Tests used:
OV90 cells = test: MTT cell viability assay, antibody and chemotherapeutic agent treatment; assay type: cell-based, human; conditions: 72 to 144 hours, S3F 0.033 nM-500 nM; for cell viability (MTT assay): STn+CD133+ OV90 and CSC sub-fractions, normalized to untreated control
Experimental: STn+CD133+OV90 and CSC sub-fractions were treated with unconjugated anti-STn antibody S3F [0.033 nM-500 nM] or with different concentrations of chemotherapeutic agents paclitaxel and/or carboplatin. OV90 cells were cultured for 72 to 144 hours with the indicated concentrations and cell viability was analyzed by MTT assay (FIG. 2). All values were normalized to the untreated control.

[1] = tested on: STn in ovarian cancer tissue; test: Immunohistochemical staining of ovarian cancer tissue sections; assay type: binding; conditions: S3F as primary antibody; peroxidase-based secondary detection; compared to normal IgG and no primary antibody
Source text: Tissue sections from ovarian cancer tissue were subjected to immunohistochemical staining to identify cells expressing STn using S3F antibody as a primary antibody. Bound antibody was detected using a peroxidase-based secondary detection system.

CSC tumors = test: Anti-CSC activity in vivo, tumors in NOD/SCID mice
Experimental: The growth conditions of CSC subfractions in NOD/SCID mice is established and analyzed. Anti-STn antibodies are administered to mice as conjugates with chemotherapy and treated mice are tested for toxicity and efficacy through mouse observations and weights.
An equivalent amount of serially-diluted positive or negative subfraction cells (i.e., 1×10^5, 1×10^4, and 1×10^3/mouse; 2-8 mice/group) are injected subcutaneously (s.c.) into NOD/SCID mice, to compare their potential to generate tumors. Following injection of tumor cells, the mice are monitored daily for evidence of tumor formation and general health.
For treatment, tumors may be generated in mice from up to four sources: 1) primary ovarian tumors; 2) xenograft tumors previously established in NOD/SCID mice; 3) cryopreserved xenograft tumor tissue; or 4) human ovarian cancer cell lines or isolated cell line subfractions based on CD133/STn expression. For each tumor type, once a sufficient number of mice have tumors ranging from 200-300 mm^3 in volume, the mice are randomized into 4 groups (n=8-14 mice/group) such that the mean group tumor volumes are essentially equivalent. […]
Tumors are then measured twice weekly with calipers [tumor volume=(Lmm×Wmm×[…])/2]. […]

| Molecule | cell viability (MTT assay) (OV90 cells) | immunohistochemical staining [1] | dose dependence of effect on cell viability (OV90 cells; OV90 cells) | efficacy in combination with standard chemotherapy agents used for ovarian cancer (CSC tumors) | growth of CSC tumors (CSC tumors; i.p. once weekly) |
| --- | --- | --- | --- | --- | --- |
| N.N.O=C([O-])C1(C(=O)[O-])CCC1.[Pt+2] [carboplatin, reference compound] | Cell viability was reduced |  |  |  |  |
| CC(=O)O[C@H]1C(=O)[C@@]2(C)[C@H]([C@H](OC(=O)c3ccccc3)[C@]3(O)C[C@H](OC(=O)[C@H](O)[C@@H](NC(=O)c4ccccc4)c4ccccc4)C(C)=C1C3(C)C)[C@]1(OC(C)=O)CO[C@@H]1C[C@@H]2O [paclitaxel, reference compound] | Cell viability was reduced |  |  |  |  |
| B1 | Cell viability was reduced | Numerous cells showed positive staining | most effective at higher doses tested | increases the efficacy of the antibody | capable of delaying the growth of or eradicating CSC tumors |
